Data published in the RNAGym collection of RNA variant scans (doi:10.1073/pnas.2313332121).
This sample holds only a part of the variants without activity.

B1: TPR 5TU (parent)
chain: GGAUCUUCUCGAUCUAACAAAAAAGACAAAUCUGCCACAAAGCUUGAGAGCAUCUUCGGAUGCAGAGGCGGCAGCCUUCGGUGGCGCGAUAGCGCCAACGUUCUCAACUAUGACACGCAAAACGCGUGCUCCGUUGAAUGGAGUUUAUCAUG

Variants of: B1
Experiment: polymerase ribozyme fitness, log enrichment relative to wild type (log ratio); higher = more active; in vitro selection for triplet polymerase activity
Outline: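 Input and output libraries were sequenced on Illumina after a single in vitro selection round, run in triplicate on PCR-built, transcribed mutant libraries of each subunit of a heterodimeric triplet polymerase ribozyme. Selection annealed libraries to a biotinylated primer, the partner subunit and triplets, incubated them frozen at −7 °C, then gel-excised extended constructs for streptavidin-bead capture and RT-PCR. Genotypes with ≥10 input reads and ≥1 read per output were kept. Fitness is the logarithm, taken in base 2, of genotype enrichment divided by wild-type enrichment, using inverse-variance-weighted replicate averages.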

| Variant | polymerase ribozyme fitness (log ratio) |
| --- | --- |
| C5A A17U G83U C87G | ≤ -4.2 |
| C5G A91U | ≤ -4.2 |
| C5A U45C G58U U82C G84A | -3.97 |
| C5A G136A | 0.816 |
| C5G C36U C96G | -2.51 |
| C5A A41G G58A A60C G84A A106U C131U U146A | -3.76 |
| C5A C69A G84A U104G C125U G126A A142C | ≤ -4.2 |
| U4G U13G A30C U31A G50U C95U C103A C105U | ≤ -4.2 |
| U4G U7G A49U C75G C93U | ≤ -4.2 |
| C5A U13A A24G U82C G100C | ≤ -4.2 |
| C5A A12C G42A G68C C79A G83A C108G | ≤ -4.2 |
| C5A C32A U56A C85U A113C | ≤ -4.2 |
| U4G C93U | -0.624 |
| U4G C27U A97U | -2.22 |
| C5G A20C G48C U56A G62A | -4.11 |
| C5G A17G A20U C57U A66U G86C A107G C108A | ≤ -4.2 |
| U4C A26U C69U | -2.9 |
| C5G C35U G80U C95U U104A | ≤ -4.2 |
| C5A C57U G81C G94C C108A G143C | ≤ -4.2 |
| C5G A23C C72U G88U C132G U135G U148G | -3.99 |
| C5A U15C U56A C105G A107C G117U U139C G143C U148C | ≤ -4.2 |

| Variant | polymerase ribozyme fitness (log ratio) |
| --- | --- |
| U4G A89C C131A | -3.28 |
| U4C C10A A12U U53A G88C C96A | ≤ -4.2 |
| U4C C38U U55G C87A A106G | ≤ -4.2 |
| U4C A23G C85U A98U G117A A119U G141U | ≤ -4.2 |
| C5A C103A | -1.35 |
| C5G A19G A24C A40U U55A G83U G86U | ≤ -4.2 |
| U4G G11U A20U A28U U56A C85U C99U U151A | ≤ -4.2 |
| U4G A23C C79A G92C G100A | ≤ -4.2 |
| U4G U56G C85A G141C | -2.61 |
| U4G A21U U31A G84U A115C | -3.65 |
| U4G A19U C43U C87U A98G | ≤ -4.2 |
| U4C C5G A20U | -1.25 |
| C5G A28G G48C G83C U104G G133U | ≤ -4.2 |
| U4C C57A C95A C96U G141A | -3.87 |
| C5A A21G G88C | -4.09 |
| U4G A41C G48C A60U A97G A107U | ≤ -4.2 |
| C5G A40C G71A C85A A142C A150C | ≤ -4.2 |
| U4G G11U G59A C93U C125U U144C | ≤ -4.2 |
| C5A A17C G88A G117U | -3.46 |
| U4C C36U A49G A66U G83A C85G G88A C114U U146G | ≤ -4.2 |
| C5A G86C G92U | -3.93 |

| Variant | polymerase ribozyme fitness (log ratio) |
| --- | --- |
| C5A A20G C85U C93U A97U | -3.46 |
| C5G A24G A26G A113G C116G | ≤ -4.2 |
| U4G U7G A20U C57U A91U C123U A150U | -3 |
| C5G C14G G48C C57A A73C C87U C118U A121G C123U G140C | ≤ -4.2 |
| C5A C79A G88A A106C | ≤ -4.2 |
| U4G C38U G58A C95U C96U U127C | -3.54 |
| U4G G48U G84A C93A G133A G141C | ≤ -4.2 |
| C5A A20C C35A G62A C76A C96G G140A G143C | ≤ -4.2 |
| C5G A20G C27A C72U A120U | ≤ -4.2 |
| C5A A110C | ≤ -4.2 |
| C5A A26G A115G | ≤ -4.2 |
| U4G C79A C93A | ≤ -4.2 |
| U4C C5U A20C C87A A98C G133U U148G | ≤ -4.2 |
| U4G U13A C57A A106C G136A | -1.91 |
| U4C C18G A52G C54U G70A A91C C93A G128U G133C U151C | ≤ -4.2 |
| C5G A29G G46U A60G | ≤ -4.2 |
| C5G A17G A26C A40U U82G C87U C118G C129A C131A G141C | ≤ -4.2 |
| C5A U9A A41G C76G A91U G126A G136A | ≤ -4.2 |
| U4G U33C G84U A120U U130C C132U | ≤ -4.2 |
| C5A A19U G86C | -3.47 |
| U4C A16C U55A G74U C85U C87U C103U U146A A147C | ≤ -4.2 |

| Variant | polymerase ribozyme fitness (log ratio) |
| --- | --- |
| U4C C85G C99U C125G | -3.5 |
| U4G U53A C85U G133C | -2.45 |
| C5A A16U G46C G84U A91G U109C A115U G136C | ≤ -4.2 |
| C5A C85G C105U | -1.21 |
| C5A A16C G50A C76U G86C U144G | ≤ -4.2 |
| C5A U45G C85G | -2.33 |
| C5G A28G A30C C36U A47U C57U C85A A91U C118U A120G C125G A142G | ≤ -4.2 |
| U4C G74A | -3.29 |
| C5A A20U A21U A107G U145C C149U | ≤ -4.2 |
| C5A C18G A40U | -0.118 |
| U4G A24G A47C C51A C54A C76G U82G G86U A115G | ≤ -4.2 |
| C5G A40C C69A G70U A89C | ≤ -4.2 |
| C5A U77A C87A | ≤ -4.2 |
| U4G A23U A26U C27G C63U U90G C93A C108U C114U C129G G140C | ≤ -4.2 |
| C5A C85U C93U | -1.66 |
| C5G A12C A40U G58C G83U C118G | -3.96 |
| U4G C14U A52U C63U C85U | -4.13 |
| U4G C8A U31A U55A C87U U101C G133C | ≤ -4.2 |
| C5G C54U G84A U127G | ≤ -4.2 |
| C5G A22U G58U A60U A64U G83C | ≤ -4.2 |
| U4C A22G G86A | -1.64 |
